Measured values taken from patent US20240262879.

T1: Peptide 5 (GPLGVRG)
T1 chain: GPLGVRG


Key:
[1] = target: Control (peptide of Table 12)
Peptide 5 (GPLGVRG) = target: T1, Peptide 5 (GPLGVRG)

Row | Protein | Specific Activity [1] | Specific Activity (Peptide 10) | Specific Activity (Peptide 5 (GPLGVRG)) | Specific Activity (Peptide 8)
1 | rmMMP9 (protein) FQTFKGLKWDHHNITYWIQNYSEDLPRDMIDDAFARAFAVWGEVAPLTFTRVYGPEADIVIQFGVAEHGDGYPFDGKDGLLAHAFPPGAGVQGDAHFDDDELWSLGKGVVIPTYYGNSNGAPCHFPFTFEGRSYSACTTDGRNDGTPWCSTTADYDKDGKFGFCPSERLYTEHGNGEGKPCVFPFIFEGRSYSACTTKGRSDGYRWCATTANYDQDKLYGFCPTRVDATVVGGNSAGELCVFPFVFLGKQYSSCTSDGRRDGRLWCATTSNFDTDKKWGFCPDQGYSLFLVAAHEFGHALGLDHSSVPEALMYPLYSYLEGFPLNKDDIDGIQYLYGRGSKPDPRPPATTTTEPQPTAPPTMCPTIPPTAYPTVGPTVGPTGAPSPGPTSSPSPGPTGAPSPGPTAPPTAGSSEASTESLSPADNPCNVDVFDAIAEIQGALHFFKDGWYWKFLNHRGSPLQGPFLTARTWPALPATLDSAFEDPQTKRVFFFSGRQMWVYTGKTVLGPRSLDKLGLGPEVTHVSGLLPRRLGKALLFSKGRVWRFDLKSQKVDPQSVIRVDKEFSGVPWNSHDIFQYQDKAYFCHGKFFWRVSFQNEVNKVDHEVNQVDDVGYVTYDLLQCP | 10 pmol/min/µg | 111 pmol/min/µg | 292 pmol/min/µg | 158 pmol/min/µg
2 | rhMMP2 (protein) YNFFPRKPKWDKNQITYRIIGYTPDLDPETVDDAFARAFQVWSDVTPLRFSRIHDGEADIMINFGRWEHGDGYPFDGKDGLLAHAFAPGTGVGGDSHFDDDELWTLGEGQVVRVKYGNADGEYCKFPFLFNGKEYNSCTDTGRSDGFLWCSTTYNFEKDGKYGFCPHEALFTMGGNAEGQPCKFPFRFQGTSYDSCTTEGRTDGYRWCGTTEDYDRDKKYGFCPETAMSTVGGNSEGAPCVFPFTFLGNKYESCTSAGRSDGKMWCATTANYDDDRKWGFCPDQGYSLFLVAAHEFGHAMGLEHSQDPGALMAPIYTYTKNFRLSQDDIKGIQELYGASPDIDLGTGPTPTLGPVTPEICKQDIVFDGIAQIRGEIFFFKDRFIWRTVTPRDKPMGPLLVATFWPELPEKIDAVYEAPQEEKAVFFAGNEYWIYSASTLERGYPKPLTSLGLPPDVQRVDAAFNWSKNKKTYIFAGDKFWRYNEVKKKMDPGFPKLIADAWNAIPDNLDAVVDLQGGGHSYFFKGAYYLKLENQSLKSVKFGSIKSDWLGC | 10 pmol/min/µg | 163 pmol/min/µg | 260 pmol/min/µg | 260 pmol/min/µg
3 | rhMMP7 (protein) YSLFPNSPKWTSKVVTYRIVSYTRDLPHITVDRLVSKALNMWGKEIPLHFRKVVWGTADIMIGFARGAHGDSYPFDGPGNTLAHAFAPGTGLGGDAHFDEDERWTDGSSLGINFLYAATHELGHSLGMGHSSDPNAVMYPTYGNGDPQNFKLSQDDIKGIQKLYGKRSNSRKK | 10 pmol/min/µg | 98.4 pmol/min/µg | 10 pmol/min/µg | 70.9 pmol/min/µg
4 | rhMMP1 (protein) FVLTEGNPRWEQTHLTYRIENYTPDLPRADVDHAIEKAFQLWSNVTPLTFTKVSEGQADIMISFVRGDHRDNSPFDGPGGNLAHAFQPGPGIGGDAHFDEDERWTNNFREYNLHRVAAHELGHSLGLSHSTDIGALMYPSYTFSGDVQLAQDDIDGIQAIYGRSQNPVQPIGPQTPKACDSKLTFDAITTIRGEVMFFKDRFYMRTNPFYPEVELNFISVFWPQLPNGLEAAYEFADRDEVRFFKGNKYWAVQGQNVLHGYPKDIYSSFGFPRTVKHIDAALSEENTGKTYFFVANKYWRYDEYKRSMDPGYPKMIAHDFPGIGHKVDAVFMKDGFFYFFHGTRQYKFDPKTKRILTLQKANSWFNCRKN | 10 pmol/min/µg | 10 pmol/min/µg | 10 pmol/min/µg | 10.8 pmol/min/µg
